Assay results taken from patent US20130302329A1, “DIAGNOSTIC TESTS FOR IMMUNE REACTIVITY WITH HUMAN ENDOTHELIAL CELL GROWTH FACTOR” (TRUSTEES OF BOSTON UNIVERSITY, priority 2010, published 2013).

What was measured:
PBMC [1] = experiment: Retest of peptides with the patient's own PBMC: IFN-γ secretion; format: cell-based, human; conditions: PBMC of patient LA1, second assay
Excerpt: Only two peptide sets (set 33 and set 40) induced proliferation responses that were >2 times background (FIG. 2). Enough cells remained for retesting the first set together and the second peptide set individually. In the second assay, only one peptide induced proliferation and IFN-γ secretion that were >2 times background. This peptide (^340LGRFERMLAAQGGVDPG^355) (SEQ ID NO:1), 1 of the 16 identified by only one of the three search programs, originated from the source protein platelet-derived endothelial cell growth factor (ECGF), also called thymidine phosphorylase or gliostatin.

PBMC [2] = experiment: Testing of subjects' PBMC with commercially available recombinant ECGF; format: cell-based, human
Description: Initially, subjects' PBMC were tested using commercially available recombinant ECGF. […] Consequently, three HLA-DR T-cell epitope prediction algorithms (Wang et al., PLoS Computat. Biol. e1000048 (2008)), were used to identify seven ECGF peptides, including the one peptide identified in the initial patients' sample (ECGF340-365), that were predicted to be presented by the HLA-DR molecules associated with antibiotic-refractory Lyme arthritis. These peptides were synthesized and tested for autoreactivity via IFN-γ ELISPOT assays using patient and control PBMC (FIG. 3). Based upon the values obtained in 14 healthy control subjects (FIG. 3), a positive T cell response was defined as a stimulation index (no. of spots induced by an ECGF peptide /no. of spots in no antigen controls) 3 standard deviation (SD) above the mean of healthy controls, which characteristically gave >40 spot forming units (SFU)/10^6 PBMC and a stimulation index of >8.

Molecule	IFN-γ secretion relative to background (PBMC [1]) [times background]	effect on thymidine incorporation (PBMC [2]; actively dividing cells)	IFN-γ secretion by PBMC (PBMC [2]; subjects' PBMC)
LGRFERMLAAQGVDPG (listed as Homo sapiens) [SEQ ID NO:1, ECGF peptide (index case), HLA-DR-presented, identified in LA1 synovial sample]	> 2	–	–
ECGF: commercially available recombinant human platelet-derived endothelial cell growth factor, also called thymidine phosphorylase or gliostatin (protein, UniProt P19971 11-482, looked up) Thymidine phosphorylase: APPAPGDFSGEGSQGLPDPSPEPKQLPELIRMKRDGGRLSEADIRGFVAAVVNGSAQGAQIGAMLMAIRLRGMDLEETSVLTQALAQSGQQLEWPEAWRQQLVDKHSTGGVGDKVSLVLAPALAACGCKVPMISGRGLGHTGGTLDKLESIPGFNVIQSPEQMQVLLDQAGCCIVGQSEQLVPADGILYAARDVTATVDSLPLITASILSKKLVEGLSALVVDVKFGGAAVFPNQEQARELAKTLVGVGASLGLRVAAALTAMDKPLGRCVGHALEVEEALLCMDGAGPPDLRDLVTTLGGALLWLSGHAGTQAQGAARVAAALDDGSALGRFERMLAAQGVDPGLARALCSGSPAERRQLLPRAREQEELLAPADGTVELVRALPLALVLHELGAGRSRAGEPLRLGVGAELLVDVGQRLRRGTPWLRVHRDGPALSGPQSRALQEALVLSDRAPFAAPSPFAELVLPPQQ	–	inhibited thymidine incorporation into actively dividing cells	non-specifically induced PBMC to secrete IFN-γ
